The text below walks through data of patent US20090291088A1, “THERAPEUTIC COMBINATIONS OF ANTI-IGF-1R ANTIBODIES AND OTHER COMPOUNDS” (Biogen Idec MA Inc., priority 2008, published 2009).

The term kon denotes the second-order rate constant of association. Read a high kon as faster complex formation. The term koff denotes a measure of how fast the partners let go of each other. Read a low koff as a long-lived complex.

The target in experiment [1] is murine IGF-1R(1-903)-Fc (mouse; human) (UniProt Q60751). Kind of experiment: SPR.
The target is the same in experiment [2]. Kind of experiment: SPR, Fab over captured mIGF-1R-Fc. On the technique in general: SPR reads the build-up and loss of mass on a sensor chip optically.
In experiment [3] the target is All other mutant IGF-1R constructs (SD001-SD019 other than SD015). Kind of experiment: SPR, Fab over captured mutant receptor-Fc.
The target in experiment [4] is murine IGF-1R(1-903)-Fc (mouse; human) (UniProt Q60751). Put plainly: SPR, Fab over captured mIGF-1R-Fc, 3 hr dissociation.
For experiment [5] the target is unchanged. Kind of experiment: SPR, Fab over mIGF-1R-Fc captured by anti-Fc, apparent affinity.

B1: M13-C06 Fab (Fab, V domains shown)
VH: EVQLLESGGGLVQPGGSLRLSCAASGFTFSIYRMQWVRQAPGKGLEWVSGISPSGGTTWYADSVKGRFTISRDNSKNTLYLQMNSLRAEDTAVYYCARWSGGSGYAFDIWGQGTMVTVSS
VL: DIQMTQSPLSLSASVGDRVTITCQASRDIRNYLNWYQQKPGKAPKLLIYDASSLQTGVPSRFGGSGSGTDFSFTIGSLQPEDIATYYCQQFDSLPHTFGQGTKLEIK
With B1, in experiment [1], the fold decrease in binding against human IGF-1R Fc turned out to be 100 fold. The molecule also yielded a kon in experiment [2] of 471 M⁻¹ s⁻¹. The Kd in experiment [3] came out at 1 nM; in experiment [5], 89.1 nM. In experiment [4], this molecule had a koff of 4.2e-05 s⁻¹.

B2: M14-C03 Fab (Fab, V domains shown)
VH: EVQLLESGGGLVQPGGSLRLSCAASGFTFSKYMMSWVRQAPGKGLEWVSYISPSGGLTWYADSVKGRFTISRDNSKNTLYLQMNSLRAEDTAVYYCARDGARGYGMDVWGQGTTVTVSS
VL: DIQMTQSPATLSLSPGERATLSCRASQSVSSYLAWYQQKPGQAPRLLIYDASNRATGIPARFSGSGSGTDFTLTISSLEPEDFAVYYCQQRSNWPPEVTFGPGTKVDIK
As to B2, the Kd in experiment [3] is 5 nM.
